Among the data in the NTF2 design screens of Basanta et al. (2020) are protease stability score values, retold here.

This series is described as follows: protease stability score; higher = more stable; yeast display proteolysis, trypsin and chymotrypsin.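 Also: relative to predicted unfolded state with 0 unfolded-like and 1 meaning tenfold more protease.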
Sequence “SEEEEHAEELIRLELEALLTGDEEHMARNLDPNVRININGKDIVGREEVSRFLKHLRVRSIHIEIKDFRVIGNWLHVDGRVHFHGHFDGRKIDSTTQFHMILVKINGRWFIHSVKFQ” registered a protease stability score of 2.6.
To “SEEEEHAKHIARLWMESFYTGDEHHMSHLLDPNVRIIIEIGDKSDEFHGREETVKWVRKYLREMRLKNFEIHDQRVFNGVANDDTIVHGNVDGRERNIRTHIIIVVVNGRVKEVKVEVK” belongs 1.6; to “SEEEEHEKEVIKRIREAMLTGDEDTLRHLLDPNVRVNIDGVEIVGMEMILRHLREIRVSIKDLKVTHVRSVNGRVEADTRSHLIIIIGDKKYEEESETRFFILKIDGRWLLTTIEFK”, 1.49.
The sequence “SEEEEHIHRLARLYWRLWETGDEETLAHLMDPNVRQIIHVGDKEFHNVGREKIIKVTKHVFEKLGVKHIKIRDMRVINGVVEIDTEVNVDGRTFDTRIKVLIVDGRIHELRWIVE” yielded a protease stability score of 1.65.
“SEEEEHIREFWNLLLRAYRTGDEKQLRELFDPHVRIHINGKEIHGMEDMIRHIREIRVIITHLELREFSFFNGRAHVDGERDLRITVGEFHRSHRTDVTIITEKVNGQWRIEEVRVH” displayed a protease stability score of 1.46.
To “SEEEEHIREHSERFIEAWKTGDWEELSRMIDPHARIVVNGKEVHGRSDIERMLRETMEKMGANHIQEESVHYQGNKIILHETVNVGDKRLRLTIVIHVVNGKVRRVEFHIEQR” belongs 2.17; to “SEEEEHLDHALKNIIDLIRTGDENLQRELFDPRVRLVVGDKEFHGWETVVHRLREMRFKDFHVRRERIVGDKVHIDVEVNGNVDGRDDVMRMEIRIDKVNGQWRTKNVILN”, 2.05; to “SEEEEHLLKWFEELITLLLTGDEDRLSELMDPNVRIEIGDKTLVGMEWANHDYTRKIRERGWRIEIIIRELRAQGDKVRARTELRIRFDGREITYETEMILVVVNGRFKRIETRVH”, 1.46.
“SEEEEHSKFLAEILLELMRTGDWRTFEELVDPNARLEIIQGDFTIDIHGREEVSKFLKNEVEQFKNMRVELHRQSAQGNKLHIDGRLKVGDKSHELRIHINVINGKLKQVKIEID” gave a protease stability score of 1.72.
To “SEEEEHSLKIARQWVENVLTGDEHLLRKLADPDTRIIVDGRHYHGWRQEHKVLEEIRIHDMFEKDVEVQGDKIYMNGTVDGEINGKRTRSDVDLIILVVDGRIKQVEINVH” belongs 1.12; to “SEEEEHTHRISRRFWRFLVTGDEDALLKNADPHVRLVIGDKHSHGRENFKRLLREWLEELGAKHLHIRDLEVQGNKVHTHGEMTVNGRNIETHIELVVIDGRHHSMEFRIG”, -0.021; to “SEEEEHTRHMYELFWRILHTGDEKSFHELADPNVLLRVGDKNFHGREEAERFLHEYWERYKNMRIEMKTFDFQGNKVHSEGVININGVKIRSELELVVFDGRLHSVIVRHR”, 2.43.
To “SEEEEHVWEWAKLVIDLWQTGNEEIFKELVDPNARSEFDGVTIHGMHNDLKRIIEELREIRVRIEIHSVRVIDGVLDVDVKLRLHIGDKQREIKIRLHIVVIDGKLKSVHIDKH” belongs 1.9.
“SEEEEHWHTLAHMIVHWWLTGDEDAFMELADPHVRFEQGDYESVGMENVRERWRMIKEEIRIHEIRVHDVRFINGVIEVDTRLIRTFNGVREEVDYRVEIVEYNGRVKRVKLEIR” came in with a protease stability score of 1.33.
Sequence “SEEEEIAERFKKLMFEATHTGDWHTFMRLADPHVRVDINGKERHGREHWVEHERRLGIDHTDIRIRREREINGVMHIDSQLILHFNGVTLTLDHKLILKKVDGKWILHELKVD” had a protease stability score of -0.054.
In the case of “SEEEEIAHRFRKTVVHALLTGDEDRLRELVDPNYRILIGDKELHGWKSMSEFTHEWRIDHVEIERESVFDGVAHHDIRVDTTVNGKRDTRIVRIIIQKVNGKWVIHSMEIH”, the protease stability score came to 0.53.
For “SEEEEIARELSEEVYRHWHTGDFRMLERYFDPHVRIIYDGRDYHGREIASTVLRETNKEWRTESMEVKDVKFINGKLHVDISSDTLYNGKRVSTSIKIVSVKVDGQWVIHQMKYV” the value was 1.1.
“SEEEEIARKIADIFFKVMQTGDEDHWLELFDPHTRFESDFNGRTVEIHGRERVREWKRKLEEDLGLTRFEIILRDSHVVNGVIHMDIEVRINGKTRRWIIDLIVINGRVKSLRVEIR”: the protease stability score is 1.15.
For “SEEEEIARRFISVWLHAFHTGDEKRLEEMIDPHVRVDYNGVEIIGRENWIEFMLTIMRNLGFNHIRVELDHLDFQGDKMRLETTLKRKVNGREERIDTRIHVKKIDGQWIFTHELYK” the value was 0.795.
The sequence “SEEEEIIESFMKELRESHKTGDPTAIDRLADPNTRLLVNGKQHHGWEHILRFLEDLGANHIELEFRDSHLIGDKMHIHGQLVMHINGQRVTIKTHMILSKINGRWYLEHIELR” returned a protease stability score of 1.81.
To “SEEEEILDKLVKHFIHAFRTGDEDRLNELLDPDAKLVIEYGDKRLEHHGRENVLRAWVELIERIKGVRLEWKEIRPQGDFVESRTQLIVNGREVETEVEIIMFNGRFREFTVRIR” belongs 2.11.
Turning to “SEEEEILETVAKKMVDILETGDEDKLTRLADPDVRHRIDVDGRDLSYHGREEINRFMHHWKREWRIDSITVHRVHVINGQIHIDIEVRETVGDKHVIVRRELIIVIVDGRVKRVEIIFR”, the protease stability score was found to be 0.253.
For “SEEEEILHKMAEDNIQMLQTGDEETLKRLLDPNVRIHIGEFRTHGMEKLSHWLLHLRIRDIRIHSMRIIDGVADIDGTVEIEQGDKRHTVNMRIFIIVINGKNHSFIFRWH” the value was 1.76.
For “SEEEEILRHILERFANVLHTGDFDWLSKMADPHVRFDVNGREFHGREEVIQAVRDWRERLGIKHLHVKDIRLQGDKMHLNGRMEFDGVIEDTRIIHQVVDGRLRSIEIRTK” the value was 0.16; for “SEEEEILRHIVELLLHILITGNEHALRTLLDPNARVDINGVTIHGREQESHIILEEVERIDHMDLKIEHLHVQGDKVHTKVERTIHIGEKEIRIEEEINLVIFNGRLRVSILHVH”, 0.97; for “SEEEEILRIALEIFIHLWQTGDEDMLKHYADPEVRVHFDGRDYHGMNDLQFFVHELRKRYPGIRLHIEHVEIEVYNGRVFIIIHQRLDFNGQVITEEVRLIVIKINGRWDIHSVKYHSH”, 0.756.
To “SEEEEILRRSVEVTLEAFKTGNERILREYLDPHVRFLYNGQEYHGWKDFVRFLINEVRRFDHVEIRLDHWEMQGEKAHFHGRLILDVNGRLEIFRVHIHLFKVDGKWTLRELRIE” belongs 1.83.
“SEEEEIMQRLLELMLQVFKTGDWKSLTDLLDPHVRLRIHQGDKTLHHHGREEFTERLRKLDEHLGVSRIDVRDHDMHEINGVLIIHLELRVNGRKVHVLILAEKIDGRWLLKSMHLVWH” displayed a protease stability score of 1.42.
To “SEEEEIRLDLARLWLELVLTGDEQVYEKLADPNVRFDVNGRELHGRETWIDLLLQFKNVVKRIELKRLDVQGDFVVLDTRLRLVVNGRTETYETWIIFYVVNGRIKEVEIRTT” belongs 1.31; to “SEEEEISKELARLWLHLFFTGNEEKLTELFDPNARLIVGDKQRHGRERVIKIFHEWLLELGIDYLDIHHIEFQGEKVHMNTKVRQGDFETRTEVNLIIVNGRIKEVRFDLR”, 1.19.
To “SEEEEISKTAIELMIRALHTGDWQHWLHLADPHYRVNINGREHHGREDSLRIINELLELLGVERVELRLEDFRVIDGRIHIITKMHYNGVVTDNRLIMKKVDGKWQLDTVIVT” belongs 1.05.
To “SEEEEIVEKMARDLFEAMRTGDEDTLLKLLDPNVKHHWNGVEYHGWHDLHHWVERFKNMKVHFRINSVKVIGEKVHIKGELNLIFNGKIIRTDVDIHINLFNGRIKESTSDTN” belongs 2.04.
Sequence “SEEEEIVKRFIELLDHVMKTGDEKFYEHMADPNTRVKQGEFEDHGREAFRWFLKEIRSKDVKTEHVELFDGRLRVEGRLLGVFNGQHVELHMILISVKVDGRWRVKMVIIH” had a protease stability score of 1.52.
To “SEEEEIVREALKIWFHAMITGDERTLNEMVDPNVRVDVDGKELIGRKHMVELLRRFKNITIRHWHIKHLDIQGDKIEIDTRLDVEVNGRQEILTEKFHARKVDGRWFLSTREER” belongs 2.19; to “SEEEEIVRHANHLFTHAMNTGDWRLLKELFDPHTKILIDGQEHHGWSIIYRELRHIRIDHVEMRIRSVHTQGNKAHVDGEIIVEGTVNGVTHKTSNRVNLIIRKVDGRWIVESIDIH”, 1.55.
To “SEEEEIYHKLAEWSKRVLETGDWREWRKLADPNTRLHVHVNGRQLDHHGRELVLTIFLWLYKHLGVKHVDERDLDYYGNKIDIHVDDRYDGRTIHNRIILFIIDGKVTSTTVHIEHE” belongs 1.38.
For “SEEEEIYKEYAELMIHIIKTGDEDALRLLLDPNTQTFINGRNIHGMDEHIRHWRHFFKKFKNMRIEITRLEIQGDKVRIHMRIEQGDKILHLLFIIVIINGRNEEIEVRIHTQ” the value was 1.69; for “SEEEEIYKRAHKFFADVFLTGNEKELEHMLDPNVRLHVNGQDHHGWTDVFRIFNFLGADHYDVKHLDIQGDKVDLHSEVDINGRTRRIIFHSLKVNGQWKITHVQVD”, 1.24.
“SEEEEIYKRIADLFLQIFSTGDEDRLHRLADPDVKWEYGDKKNVGMKDVIHYFEHIWMHVERSDNTDVDLQGNKARVDMRSDIRIEINGRELRIKVSVLIIIVKFNGRWTVHSLRIE”: the protease stability score turned out to be 1.27.
For “SEEEEKAKKWLEEVLRAEETGDEEKLLELADPNVRWIFNGVDVIGRKHFERNIRESLEKIPNMRIEHFHLHRMETIDGRIDMETEEDGIINGRDIRTRRRIIVVKVDGRWIIKSVHLI” the value was 0.637; for “SEEEEKARRLSELITRSFLTGDEEELEELLDPNARNIYNGVIVHGREEVSRLFHEEWLRYGIDHVRLEDMHIDVQGDKVDFHIIMRSEFNGRVHHVRVEVHIEKVDGRWVMKRLELRFS”, 0.977.
To “SEEEEKAVKVTEEILHNLLTGDWERLAEMLDPDTWLHQGDKHRHGREQVLKHFSDFYNEIRIEDFKIHDITVQGEKAISHGHVKMRYGDKVRETSVRFVLIVIDGRIDQIEVHVH” belongs 1.8.
To “SEEEEKFHRFYKLLLEMILTGNWKEVWDLMDPNARLDVIIGDKSIHNHGWKVILEFMREIRIRHVHIKHMEVYNGRIHLDEHRDIHFNGRDIRSDVIIHAVVIDGRFHHERIEFL” belongs 0.751.
As for “SEEEEKIKKLHTDWLHLLLTGDEDRLKQLMDPHAKISIEQGDFHLDLHGREDIIEFYWEERHRIDHLDIRVRHIEVWNGKIITKEENRIDFNGRKHVTEVDLEIEIVDGKFRSLHIRIH”, the protease stability score came to 1.02.
To “SEEEEKLKKILELLRHRILTGDEEFYSRLIDPNARVNIDGKTTHGREEMEHILRELNEDYGVKHHTVRSTEIFDGVNWIRGEFRVNGRSRTVEIIIWVYNGRLKSSEFRFD” belongs 1.39; to “SEEEEKRRKSAEDFMRSLVTGDEDDLSRLADPHVRLDINGKEHHGMEEFKRLLSEFWEEMGIKHVRIRRIDIQGNKAILHTEVDWNGRIHEVTIDVQTYNGRIKSVKVIIH”, 1.24; to “SEEEEKTRRILEELFELFLTGDEQRTLELFDPNMRFHLHYGDKELHLHGREEVAKFLHDHRHRVKNVKFHLKKEEVQGDKAILYIRVEIDGQEVYLNIEIHVIDGKLHEVVERIHEV”, 2.25.
